Assays:
[1] = molecular target: T1, CjFur K17E K17E (Campylobacter jejuni NCTC11168?) (UniProt P0C631); experiment: EMSA; conditions: 20 mM Bis-Tris borate pH 7.4, 50 mM KCl, 3 mM MgCl2, 5% glycerol, 0.1% Triton X-100, 0.1 ug poly dI-dC, 2 nM DNA, 45 min on ice; holo: +50 uM MnCl2 (100 uM in …)
T1 sequence: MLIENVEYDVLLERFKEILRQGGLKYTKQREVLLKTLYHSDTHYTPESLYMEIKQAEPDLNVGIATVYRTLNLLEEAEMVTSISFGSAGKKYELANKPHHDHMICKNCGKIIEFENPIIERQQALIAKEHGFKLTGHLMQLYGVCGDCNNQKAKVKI

[2] = molecular target: T2, CjFur K25E K25E (Campylobacter jejuni NCTC11168?) (UniProt P0C631); experiment: EMSA; conditions: 20 mM Bis-Tris borate pH 7.4, 50 mM KCl, 3 mM MgCl2, 5% glycerol, 0.1% Triton X-100, 0.1 ug poly dI-dC, 2 nM DNA, 45 min on ice; holo: +50 uM MnCl2 (100 uM in …)
T2 sequence: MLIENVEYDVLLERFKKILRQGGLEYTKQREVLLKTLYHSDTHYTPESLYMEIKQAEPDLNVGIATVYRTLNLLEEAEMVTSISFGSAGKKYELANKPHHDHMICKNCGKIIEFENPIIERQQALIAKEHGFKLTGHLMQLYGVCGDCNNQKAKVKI

[3] = molecular target: T3, CjFur K28E K28E (Campylobacter jejuni NCTC11168?) (UniProt P0C631); experiment: EMSA; conditions: 20 mM Bis-Tris borate pH 7.4, 50 mM KCl, 3 mM MgCl2, 5% glycerol, 0.1% Triton X-100, 0.1 ug poly dI-dC, 2 nM DNA, 45 min on ice; holo: +50 uM MnCl2 (100 uM in …)
T3 sequence: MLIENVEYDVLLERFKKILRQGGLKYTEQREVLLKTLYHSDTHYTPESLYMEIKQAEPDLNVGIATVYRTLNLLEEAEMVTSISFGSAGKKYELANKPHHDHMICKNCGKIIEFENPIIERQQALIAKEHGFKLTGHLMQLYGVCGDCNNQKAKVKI

[4] = molecular target: T4, CjFur R20E R20E (Campylobacter jejuni NCTC11168?) (UniProt P0C631); experiment: EMSA; conditions: 20 mM Bis-Tris borate pH 7.4, 50 mM KCl, 3 mM MgCl2, 5% glycerol, 0.1% Triton X-100, 0.1 ug poly dI-dC, 2 nM DNA, 45 min on ice; holo: +50 uM MnCl2 (100 uM in …)
T4 sequence: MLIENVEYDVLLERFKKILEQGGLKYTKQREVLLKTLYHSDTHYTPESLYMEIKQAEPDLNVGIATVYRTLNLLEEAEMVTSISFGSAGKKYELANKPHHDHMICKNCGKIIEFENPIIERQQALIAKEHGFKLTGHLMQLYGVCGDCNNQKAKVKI

[5] = molecular target: T5, CjFur R30E R30E (Campylobacter jejuni NCTC11168?) (UniProt P0C631); experiment: EMSA; conditions: 20 mM Bis-Tris borate pH 7.4, 50 mM KCl, 3 mM MgCl2, 5% glycerol, 0.1% Triton X-100, 0.1 ug poly dI-dC, 2 nM DNA, 45 min on ice; holo: +50 uM MnCl2 (100 uM in …)
T5 sequence: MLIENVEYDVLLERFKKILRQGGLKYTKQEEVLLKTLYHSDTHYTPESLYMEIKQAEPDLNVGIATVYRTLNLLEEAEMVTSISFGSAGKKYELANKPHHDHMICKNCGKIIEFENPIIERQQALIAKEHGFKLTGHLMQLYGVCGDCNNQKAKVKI

[6] = molecular target: T6, CjFur R69E R69E (Campylobacter jejuni NCTC11168?) (UniProt P0C631); experiment: EMSA; conditions: 20 mM Bis-Tris borate pH 7.4, 50 mM KCl, 3 mM MgCl2, 5% glycerol, 0.1% Triton X-100, 0.1 ug poly dI-dC, 2 nM DNA, 45 min on ice; holo: +50 uM MnCl2 (100 uM in …)
T6 sequence: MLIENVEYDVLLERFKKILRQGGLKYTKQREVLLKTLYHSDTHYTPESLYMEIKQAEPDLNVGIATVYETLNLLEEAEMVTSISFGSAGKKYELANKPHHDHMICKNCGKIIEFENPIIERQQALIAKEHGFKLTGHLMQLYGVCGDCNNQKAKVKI

[7] = molecular target: T7, CjFur WT (Campylobacter jejuni NCTC11168?) (UniProt P0C631); experiment: EMSA; conditions: 20 mM Bis-Tris borate pH 7.4, 50 mM KCl, 3 mM MgCl2, 5% glycerol, 0.1% Triton X-100, 0.1 ug poly dI-dC, 2 nM DNA, 45 min on ice; holo: +50 uM MnCl2 (100 uM in …)
T7 sequence: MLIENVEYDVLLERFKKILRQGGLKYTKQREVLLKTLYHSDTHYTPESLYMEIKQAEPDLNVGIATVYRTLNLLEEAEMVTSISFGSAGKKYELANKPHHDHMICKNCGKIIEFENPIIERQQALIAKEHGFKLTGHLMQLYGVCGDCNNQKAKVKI

[8] = molecular target: T8, CjFur Y68A Y68A (Campylobacter jejuni NCTC11168?) (UniProt P0C631); experiment: EMSA; conditions: 20 mM Bis-Tris borate pH 7.4, 50 mM KCl, 3 mM MgCl2, 5% glycerol, 0.1% Triton X-100, 0.1 ug poly dI-dC, 2 nM DNA, 45 min on ice; holo: +50 uM MnCl2 (100 uM in …)
T8 sequence: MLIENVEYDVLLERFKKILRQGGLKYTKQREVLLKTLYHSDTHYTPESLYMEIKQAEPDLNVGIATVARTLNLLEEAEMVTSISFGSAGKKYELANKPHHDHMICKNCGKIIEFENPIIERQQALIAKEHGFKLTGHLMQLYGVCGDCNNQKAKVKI

[9] = molecular target: T9, CjFurΔS2 H43A;H102A (Campylobacter jejuni NCTC11168?) (UniProt P0C631); experiment: EMSA; conditions: 20 mM Bis-Tris borate pH 7.4, 50 mM KCl, 3 mM MgCl2, 5% glycerol, 0.1% Triton X-100, 0.1 ug poly dI-dC, 2 nM DNA, 45 min on ice; holo: +50 uM MnCl2 (100 uM in …)
T9 sequence: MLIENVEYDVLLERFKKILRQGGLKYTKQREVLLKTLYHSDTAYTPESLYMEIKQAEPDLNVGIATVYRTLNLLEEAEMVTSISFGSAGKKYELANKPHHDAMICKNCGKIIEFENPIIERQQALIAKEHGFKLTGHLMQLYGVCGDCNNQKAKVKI

[10] = molecular target: T10, CjFurΔS3 H99A;H137A (Campylobacter jejuni NCTC11168?) (UniProt P0C631); experiment: EMSA; conditions: 20 mM Bis-Tris borate pH 7.4, 50 mM KCl, 3 mM MgCl2, 5% glycerol, 0.1% Triton X-100, 0.1 ug poly dI-dC, 2 nM DNA, 45 min on ice; holo: +50 uM MnCl2 (100 uM in …)
T10 sequence: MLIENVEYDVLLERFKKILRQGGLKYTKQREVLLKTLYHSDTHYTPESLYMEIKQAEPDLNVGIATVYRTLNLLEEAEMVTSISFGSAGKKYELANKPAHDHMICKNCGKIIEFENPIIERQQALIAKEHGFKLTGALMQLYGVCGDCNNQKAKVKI

[11] = molecular target: the molecule itself; experiment: crystal structure; CjFur (7.5 ug/uL) crystallised in 0.1 M Bis-Tris pH 5.5, 0.25 M MgFormate, 25% PEG3350; molecular replacement; 1.8 A; form with zinc in S1 only (CjFurZn)
[12] = molecular target: CjFur Y68A (UniProt P0C631 1-157, Y68A); experiment: EMSA; holo, 50 uM MnCl2; 0-100 nM protein; 20 mM Bis-Tris borate pH 7.4, 50 mM KCl, 3 mM MgCl2, 5% glycerol, 0.1% Triton X-100, 0.1 ug poly dI-dC, 2 nM DNA, 45 min on ice; holo: +50 uM MnCl2 (100 uM in gel); gel at 4 C; conditions: protein: recombinant; tags: N-terminal Strep tag, TEV-cleaved; chain copies: 2; label: 5' Cy5 on both strands; blunt
[13] = molecular target: CjFur R69E (UniProt P0C631 1-157, R69E); experiment: as above; conditions: protein: recombinant; tags: N-terminal Strep tag, TEV-cleaved; chain copies: 2; label: 5' Cy5 on both strands; blunt
[14] = molecular target: CjFur K25E (UniProt P0C631 1-157, K25E); experiment: as above; conditions: protein: recombinant; tags: N-terminal Strep tag, TEV-cleaved; chain copies: 2; label: 5' Cy5 on both strands; blunt
[15] = molecular target: CjFur R30E (UniProt P0C631 1-157, R30E); experiment: as above; conditions: protein: recombinant; tags: N-terminal Strep tag, TEV-cleaved; chain copies: 2; label: 5' Cy5 on both strands; blunt
[16] = molecular target: T11, CjFur WT (UniProt P0C631 1-157); experiment: EMSA; holo, 50 uM MnCl2; 0-100 nM protein; two bound species; 20 mM Bis-Tris borate pH 7.4, 50 mM KCl, 3 mM MgCl2, 5% glycerol, 0.1% Triton X-100, 0.1 ug poly dI-dC, 2 nM DNA, 45 min on ice; holo: +50 uM MnCl2 (100 uM in gel); gel at 4 C; conditions: protein: recombinant; tags: N-terminal Strep tag, TEV-cleaved; chain copies: 2; label: 5' Cy5 on both strands; blunt
T11 sequence: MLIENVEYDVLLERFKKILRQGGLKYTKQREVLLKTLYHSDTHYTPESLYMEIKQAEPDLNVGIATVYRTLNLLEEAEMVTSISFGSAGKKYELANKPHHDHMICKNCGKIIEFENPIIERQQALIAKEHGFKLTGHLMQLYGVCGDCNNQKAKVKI

GGGAAAAGAGCCAAATTTAGGTGTTATCATCAATGCTGCTAATGAAGTTGGTGTTTATAATTTTTTAGAAAATAAAAGTGGATTTTTAGACATTGCTAAATGCATTTTTAAAGCCCTTGATCATTTTGGAGTACCTAAAATTTCAAGCATAGAAGAAGTTTTTGAGTATGATTTTAAAACAAGAGAGTATTTAAGGAGTTAAA (double strand) [cj1345c promoter region]
binding [1]: binds more weakly | binding [2]: no binding | binding [3]: no binding | binding [4]: no binding | binding [5]: binds more weakly | binding [6]: no binding | binding [7]: binds | binding [8]: binds more weakly | binding [9]: binds more weakly | binding [10]: binds more weakly

B1: Campylobacter jejuni Fur (ferric uptake regulator), wild type (natural protein)
chain: MLIENVEYDVLLERFKKILRQGGLKYTKQREVLLKTLYHSDTHYTPESLYMEIKQAEPDLNVGIATVYRTLNLLEEAEMVTSISFGSAGKKYELANKPHHDHMICKNCGKIIEFENPIIERQQALIAKEHGFKLTGHLMQLYGVCGDCNNQKAKVKI
notes: Ferric uptake regulator Fur of Campylobacter jejuni; wild type; in the crystal one zinc per protomer in the S1 site (C105, C108, C145, C148), S2 and S3 sites empty; Crystallised form is called CjFurZn (zinc only in S1); the earlier structure 4ETS of the same protein is called CjFurZn2 (zinc in S1 and S3); also called CjFur; CjFurZn; source: E. coli Rosetta, purified (Strep-TACTIN beads, TEV …)
stoichiometry N [11]: 2

B2: katA promoter 60 bp (dsDNA)
DNA 1: ACTGAATAATTGCATTTTATTGATAATAAATTTCAAAATAAATTTAGTTTTTTTATATTA
DNA 2: TAATATAAAAAAACTAAATTTATTTTGAAATTTATTATCAATAAAATGCAATTATTCAGT
binding result [12]: no binding | binding result [13]: no binding | binding result [14]: no binding | binding result [15]: no binding | binding result [16]: binds
